Measured values taken from article doi:10.1101/431494, “Conservation of the structural and functional architecture of encapsulated ferritins in bacteria and archaea” (bioRxiv, 2018).
“And” between values parts separate entries of the source, which are not always exact repeats. Equal values may be shown once.

Tests used:
[1] = molecular target: the molecule itself; experiment: native MS; nano-ESI, 100 mM ammonium acetate pH 8.0, ~5 uM (oligomer concentration)
[2] = molecular target: the molecule itself; experiment: SEC; analytical size-exclusion chromatography, Superdex 200 16/60, 50 mM Tris-HCl pH 8.0, 150 mM NaCl, calibrated with standards of known molecular weight
[3] = molecular target: the molecule itself; experiment: SDS-PAGE (resistance of oligomers to SDS and heat denaturation); SDS-PAGE of the size-exclusion peak fractions
[4] = molecular target: the molecule itself; experiment: crystal structure; sitting drop vapour diffusion; Hoch_EncFtn in 0.2 M NaCl, 0.1 M Bis-Tris pH 5.5, 20 % PEG 3350; Pfc_EncFtn in 0.2 M LiSO4, 20 % PEG 3350; molecular replacement with PDB 5DA5

B1: Rhodospirillum rubrum encapsulated ferritin, hexahistidine-tagged variant (natural protein, UniProt Q2RVS1 1-140, looked up)
chain: MAQSSNSTHEPLEVLKEETVNRHRAIVSVMEELEAVDWYDQRVDASTDPELTAILAHNRDEEKEHAAMTLEWLRRNDAKWAEHLRTYLFTEGPITAIEAADTAGEGSGGDAAKGATAQGDGSLGIGSLKGEAALARPPRL
[1]
  stoichiometry N: 10

B2: Rhodospirillum rubrum encapsulated ferritin, Strep-tagged variant (natural protein, UniProt Q2RVS1 1-140, looked up)
chain: MAQSSNSTHEPLEVLKEETVNRHRAIVSVMEELEAVDWYDQRVDASTDPELTAILAHNRDEEKEHAAMTLEWLRRNDAKWAEHLRTYLFTEGPITAIEAADTAGEGSGGDAAKGATAQGDGSLGIGSLKGEAALARPPRL
notes: source: recombinant, purified by Strep-Trap column HP
[2]
  stoichiometry N: 10

B3: Pyrococcus furiosus encapsulated ferritin domain, residues 1-99, C-terminal StrepII-tagged variant (domain or fragment, UniProt Q8U1L4 1-99, looked up)
chain: MLSINPTLINRDKPYTKEELMEILRLAIIAELDAINLYEQMARYSEDENVRKILLDVAREEKAHVGEFMALLLNLDPEQVTELKGGFEEVKELTGIEAH
notes: EncFtn domain (residues 1-99) of the single contiguous EncFtn-encapsulin polypeptide of Pyrococcus furiosus; locus tag printed as Pfc_01575, Pfc_05157 and Pfc_05175; source: E. coli BL21(DE3), purified (Strep-Trap HP); not shown: StrepII, C-terminal, kept
[3]
  stoichiometry N: 2
[2]
  stoichiometry N: 10 and ~20

B4: Pyrococcus furiosus encapsulated ferritin domain, residues 1-99, C-terminal hexahistidine tagged variant (domain or fragment, UniProt Q8U1L4 1-99, looked up)
chain: MLSINPTLINRDKPYTKEELMEILRLAIIAELDAINLYEQMARYSEDENVRKILLDVAREEKAHVGEFMALLLNLDPEQVTELKGGFEEVKELTGIEAH
notes: EncFtn domain (residues 1-99) of the single contiguous EncFtn-encapsulin polypeptide of Pyrococcus furiosus; locus tag printed as Pfc_01575, Pfc_05157 and Pfc_05175; source: E. coli BL21(DE3), purified (HisTrap FF, S200 size-exclusion chromatography); not shown: His6, C-terminal, kept
[1]
  stoichiometry N: 10
[2]
  stoichiometry N: ~10

B5: Pyrococcus furiosus encapsulated ferritin domain as crystallised (PDB 5N5E) (domain or fragment, UniProt Q8U1L4 1-99, looked up)
chain: MLSINPTLINRDKPYTKEELMEILRLAIIAELDAINLYEQMARYSEDENVRKILLDVAREEKAHVGEFMALLLNLDPEQVTELKGGFEEVKELTGIEAH
notes: EncFtn domain (residues 1-99) of the single contiguous EncFtn-encapsulin polypeptide of Pyrococcus furiosus; electron density visible for residues 2-98 in each chain; source: E. coli BL21(DE3), purified; copies: 10
[4]
  stoichiometry N: 10
